Numbering of substitutions follows the chain as printed. One block for each binder: values may come before it.
Legend:
hu-IL-36β [1] = biological target: T1, hu-IL-36β (human); assay: cell-based or functional assay
T1 chain: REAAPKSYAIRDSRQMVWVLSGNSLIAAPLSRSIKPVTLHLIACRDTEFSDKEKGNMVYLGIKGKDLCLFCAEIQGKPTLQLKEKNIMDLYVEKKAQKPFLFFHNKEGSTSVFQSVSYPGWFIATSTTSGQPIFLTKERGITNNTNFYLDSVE

hu-IL-36α [2] = biological target: T2, hu-IL-36α (human, UniProt Q9UHA7 6-158); assay: cell-based or functional assay
T2 sequence: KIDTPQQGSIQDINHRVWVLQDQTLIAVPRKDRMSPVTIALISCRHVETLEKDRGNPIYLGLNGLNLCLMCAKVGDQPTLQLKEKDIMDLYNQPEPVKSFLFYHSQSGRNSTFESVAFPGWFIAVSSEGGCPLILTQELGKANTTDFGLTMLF

hu-IL-36γ [3] = biological target: T3, hu-IL-36γ (human, UniProt Q9NZH8 18-169); assay: cell-based or functional assay
T3 sequence: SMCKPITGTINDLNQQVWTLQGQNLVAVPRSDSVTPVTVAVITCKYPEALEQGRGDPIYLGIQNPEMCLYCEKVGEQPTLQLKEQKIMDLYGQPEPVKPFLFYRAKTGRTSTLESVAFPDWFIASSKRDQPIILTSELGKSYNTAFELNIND

hu-IL-36β [4] = biological target: T1, hu-IL-36β; assay: cell-based or functional assay
hu-IL-36β [5] = biological target: T1, hu-IL-36β; assay: cell-based or functional assay
cy-IL-36β = biological target: T4, cy-IL-36β (cynomolgus monkey); assay: cell-based or functional assay
T4 chain: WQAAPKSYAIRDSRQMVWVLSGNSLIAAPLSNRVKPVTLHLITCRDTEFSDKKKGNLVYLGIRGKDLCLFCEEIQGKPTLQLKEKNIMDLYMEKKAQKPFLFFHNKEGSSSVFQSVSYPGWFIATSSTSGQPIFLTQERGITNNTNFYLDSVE

hu-IL-36β [6] = biological target: T1, hu-IL-36β; assay: SPR (Biacore 8K), biotinylated hu-IL-36β captured, Fab injected, 37 C
Experimental: Briefly, a 1:4 dilution of Biotin CAPture Reagent (GE) into HBS-EP buffer (0.01 M HEPES pH 7.4, 0.15 M NaCl, 3 mM EDTA, 0.005% Surfactant P20) was applied to a CAP sensor chip at 2 uL/min flow rate. For kinetics measurements, 6 nM biotinylated human IL-36β was captured at 10 uL/min to achieve ˜50 response units in the second flow cell (FC2). FC1 was kept as a reference. Next, […] serial dilutions of Fab in HBS-P buffer (0.01M HEPES pH 7.4, 0.15M NaCl, 0.005% surfactant P20) from low (3.125 nM) to high (200 nM) were injected (flow rate: 10 uL/min) at 37° C. The sensorgram was recorded and subject to reference and buffer subtraction before evaluating by BIACORE® 8K Evaluation Software (version 1.1.1.7442). Association rates (kₒₙ) and dissociation rates (koff) were calculated using a simple one-to-one Langmuir binding model.

hu-IL-36α [7] = biological target: T2, hu-IL-36α; assay: cell-based or functional assay; remark: listed apart in the source
hu-IL-36γ [8] = biological target: T3, hu-IL-36γ; assay: cell-based or functional assay; remark: listed apart in the source
cy-IL-36γ = biological target: T5, cy-IL-36γ (cynomolgus monkey, UniProt Q9NZH8 18-167 (human entry), limits assumed); assay: cell-based or functional assay
T5 chain: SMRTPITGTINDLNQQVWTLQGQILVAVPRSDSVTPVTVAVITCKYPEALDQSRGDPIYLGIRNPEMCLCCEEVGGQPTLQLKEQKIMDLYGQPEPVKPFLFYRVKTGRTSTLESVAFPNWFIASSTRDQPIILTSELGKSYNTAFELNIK

cy-IL-36α = biological target: T6, cy-IL-36α (cynomolgus monkey, UniProt Q9UHA7 14-158 (human entry), limits assumed); assay: cell-based or functional assay
T6 chain: T2 sequence with I2S, D3E, T4M, Q7P, G8V, T24I, M34V, A40S, V74A

percent of IL-8 production in HaCat cells inhibited at 8 nM antibody (hu-IL-36β [1]): 100% | percent of IL-8 production in primary human adult keratinocytes inhibited at 8 nM antibody (hu-IL-36β [1]): 100% | percent of IL-8 production in HaCat cells inhibited at 8 nM antibody (hu-IL-36α [2]): 100% | percent of IL-8 production in primary human adult keratinocytes inhibited at 8 nM antibody (hu-IL-36α [2]): 100% | percent of IL-8 production in HaCat cells inhibited at 8 nM antibody (hu-IL-36γ [3]): 100% | percent of IL-8 production in primary human adult keratinocytes inhibited at 8 nM antibody (hu-IL-36γ [3]): 100%
B1: anti-IL-36 multispecific antibody mAb2.10/mAb6_2.7 (bispecific antibody, human IgG1, lambda, N297G)
heavy 1: not shown
heavy 2: not shown
light: ESVLTQPPSVSGAPGQRVTISCTGSSSNIGAHYDVHWYQQLPGTAPKLLIYGNDNRPSGVPDRFSGSKSGTSASLAITGLQAEDEADYYCQSYDYSLSGYVFGGGTKLTVLGQPKAAPSVTLFPPSSEELQANKATLVCLISDFYPGAVTVAWKADSSPVKAGVETTTPSKQSNNKYAASSYLSLTPEQWKSHKSYSCQVTHEGSTVEKTVAPTECS

% Inhibition, HEK Blue SEAP reporter assay (hu-IL-36β [4]): 86%
B2: mAb6.0 Fab (Fab, V domains shown)
VH: QLQLQESGPGLVKPSETLSLTCTVSGGSITSSNYYWGWIRQPPGKGLEWIGSIDYTGSTYYNPSLKSRVTISVDTSKNQFSLKLSSVTAADTAVYYCARGKYYETYLGFDVWGQGTLVTVSS
VL: QSVLTQPPSVSGAPGQRVTISCTGSSSNIGAGYDVHWYQQLPGTAPKLLIYGNTNRPSGVPDRFSGSKSGTSASLAITGLQAEDEADYYCQSYDISLSGWVFGGGTKLTVL

IC50, HEK Blue SEAP reporter assay (hu-IL-36β [5]): 0.64 nM | blocking potency relative to the natural antagonist IL-36Ra, HaCat IL-8 assay (hu-IL-36β [1]): 1000 fold | IC50, HEK Blue SEAP reporter assay with cynomolgus IL-36 on human IL-36 receptor (cy-IL-36β): 1.96 nM
B3: mAb6.0 IgG (antibody, V domains shown)
VH: B2 VH
VL: QESVLTQPPSVSGAPGQRVTISCTGSSSNIGAGYDVHWYQQLPGTAPKLLIYGNTNRPSGVPDRFSGSKSGTSASLAITGLQAEDEADYYCQSYDISLSGWVFGGGTKLTVLG

fold lower potency than mAb6.0 IgG, HaCat IL-8 assay (hu-IL-36β [1]): 16 fold
B4: mAb6.0_2.0 IgG (antibody, V domains shown)
VH: B2 VH
VL: QSVLTQPPSVSGAPGQRVTISCTGSSSNIGAHYDVHWYQQLPGTAPKLLIYGNDNRPSGVPDRFSGSKSGTSASLAITGLQAEDEADYYCQSYDYSLSGYVFGGGTKLTVLG

kon (hu-IL-36β [6]): 850000 M⁻¹ s⁻¹
B5: mAb6_2.6 Fab (Fab, V domains shown)
VH: B2 VH with Q1E, S31A, N62E, R99T, K101N
VL: B2 VL with Q1E, G32H, T54D, I95Y, W100Y
notes: Recombinant Fab with 8xHis tag

% Inhibition, HEK Blue SEAP reporter assay (hu-IL-36β [4]): 85%
B6: mAb8.0 Fab (Fab, V domains shown)
VH: QVQLVQSGAEVKKPGSSVKVSCKASGGTFSNYAISWVRQAPGQGLEWMGGILPILGTVDYAQKFQGRVTITADESTSTAYMELSSLRSEDTAVYYCAREPWYRLGAFDVWGQGTLVTVSS
VL: DIQMTQSPSSLSASVGDRVTITCRASQTIYKYLNWYQQKPGKAPKLLIYAASSLQSGVPSRFSGSGSGTDFTLTISSLQPEDFATYYCQQYSSIPYTFGQGTKVEIK

IC50, HEK Blue SEAP reporter assay (hu-IL-36β [5]): 0.34 nM
B7: mAb8.0 IgG (antibody, V domains shown)
VH: B6 VH
VL: B6 VL

IC50, HEK Blue SEAP reporter assay (hu-IL-36α [7]): 5.7 nM | IC50, HEK Blue SEAP reporter assay (hu-IL-36γ [8]): 7.5 nM | IC50, HEK Blue SEAP reporter assay with cynomolgus IL-36 on human IL-36 receptor (cy-IL-36γ): 1.71 nM | IC50, HEK Blue SEAP reporter assay with cynomolgus IL-36 on human IL-36 receptor (cy-IL-36α): 0.56 nM
B8: mAb2.0 IgG (antibody, V domains shown)
VH: QLQLQESGPGLVKPSETLSLTCTVSGGSISTSSYYWGWIRQPPGKGLEWIGSIYYTGNTYYNPSLKSRVTISVDTSKNQFSLKLSSVTAADTAVYYCARVRYGVGVPRYFDPWGQGTLVTVSS
VL: B4 VL

% Inhibition, HEK Blue SEAP reporter assay (hu-IL-36β [4]): 84%
B9: mAb7.0 Fab (Fab, V domains shown)
VH: QVQLVESGGGVVQPGRSLRLSCAASGFTFSSYGMHWVRQAPGKGLEWVAVISYGGSERYYADSVKGRFTISRDNSKNTLYLQMNSLRAEDTAVYYCAREPWYSSRGWTGYGFDVWGQGTLVTVSS
VL: EIVLTQSPGTLSLSPGERATLSCRASQSVSSNYLAWYQQKPGQAPKLLIYSASSLQSGVPSRFSGSGSGTDFTLTISSLQPEDFATYYCQQTYSYPPTFGQGTKVEIK

IC50, HEK Blue SEAP reporter assay (hu-IL-36β [5]): 1.4 nM
B10: mAb7.0 IgG (antibody, V domains shown)
VH: B9 VH
VL: B9 VL

— US20200199217A1 (published 2020)
